The numbers were not newly measured in publication PMC2892843, which cites them from elsewhere.

For this series, the target named is NgR1 (UniProt Q9BZR6).
Chain of UniProt Q9BZR6 (Q9BZR6 27-447): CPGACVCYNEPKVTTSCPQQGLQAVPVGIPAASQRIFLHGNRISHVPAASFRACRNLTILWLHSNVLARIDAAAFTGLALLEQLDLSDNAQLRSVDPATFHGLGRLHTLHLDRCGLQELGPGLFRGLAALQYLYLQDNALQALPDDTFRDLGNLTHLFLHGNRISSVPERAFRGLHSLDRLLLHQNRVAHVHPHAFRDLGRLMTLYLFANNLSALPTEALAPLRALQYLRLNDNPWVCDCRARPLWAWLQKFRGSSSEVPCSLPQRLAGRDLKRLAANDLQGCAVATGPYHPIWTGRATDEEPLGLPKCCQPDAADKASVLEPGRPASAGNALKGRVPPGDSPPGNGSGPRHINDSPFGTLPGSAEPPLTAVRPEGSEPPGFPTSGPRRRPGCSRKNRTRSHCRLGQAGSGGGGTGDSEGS

As for MAG (from UniProt P20916), the Kd (as a rule, the free concentration of one partner at which half of the binding sites on the other are occupied at equilibrium, for simple one-to-one binding) was 0.01 µM.
